# Data: EP4541814A1 (Cytiva BioProcess R&D AB, dated 2025)
# Substitutions are numbered along the chain they refer to.
# B1: Candidate 4A-2: vh343 fusion protein (SEQ ID NO:164) (VHH)
# VHH: EVQLVESGGGLVQAGGSLRLSCAASGRTLSDYTMGWFRQAPGKEREFVVAISWSGAYTKYADSVKGRFTISRDNAKNTMYLQMNSLKPEDTAVYYCAAGPTGLLSKKATPADYDYWGQGTQVTVSS
# B2: Candidate 4A-3: vh118 fusion protein (SEQ ID NO:162) (VHH)
# VHH: B1 VHH with E1Q, V5Q, E6Q, L11S, A23T, A24I, A40R, V49A, M79V
# Target: AAV9 viral particles (adeno-associated virus 9)
# Assay: SPR (Biacore 8K+), fusion protein amine-coupled to CM5, AAV9 2E12 vp/ml, report point late binding
row,Binder,Binding capacity AAV9 (2E12 vp/ml) (RU)
1,B1,12400 RU
2,B2,12400 RU
